Test results from the RNAGym collection of RNA variant scans (doi:10.7554/elife.80360).

B1: HDV Ribozyme (parent)
chain: GGCCGGCAUGGUCCCAGCCUCCUCGCUGGCGCCGGCUGGGCAACAUUCCGAGGGGACCGUCCCCUCGGUAAUGGCGAAUGGGACCCA

Variants of: B1
Test: self-cleavage, relative activity (ratio to wild type); higher = more cleavage; co-transcriptional

Variant | self-cleavage
G28U U37A | 0.0773
G29A G82A | 0.109
G29C G40A | 0.0804
G29C A83G | 0.0863
G29C A83U | 0.0462
G29C U60A | 0.0426
C30A U37C | 0.199
G28A G53U | 0.0615
C30G G81C | 0.032
C30A G59U | 0.637
G29C A51C | 0.231
G29U G50U | 0.12
G29A G50U | 0.241
G29A G50A | 0.134
G28U G59C | 0.136
G28U G59U | 0.106
G29A C41U | 0.25
G29A C41A | 0.0405
G28U A77G | 0.111
G28C C41A | 0.0573
C30G G54U | 0.148
C30G G54C | 0.095
G29U G80U | 0.0885
G29U G80C | 0.0504

Variant | self-cleavage
C30A C32G | 0.101
G29U G73U | 0.095
G29U G73C | 0.185
G28U G40U | 0.0277
G28U G40C | 0.215
G28C C75G | 0.113
C30A G68C | 0.308
G29C G68U | 0.0302
C30G C75A | 0.0583
G29U C84A | 0.117
G29A C85G | 0.119
G29C U46G | 0.0723
G28C C36U | 0.145
G28U G29A | 0.0755
G29U G40U | 0.0923
G29U G53U | 0.0213
G28C G68A | 0.0475
C30A C58U | 0.318
C30A C58A | 0.623
G29U G31U | 0.0804
G29U G31A | 0.135
G29C C57U | 0.0604
G29U U72G | 0
G29A C44U | 0.151

Variant | self-cleavage
G29C C64U | 0.0594
G29C U65G | 0.123
G29C U65A | 0.095
G29U C66U | 0.147
G28C G54U | 0.0248
G28C G54C | 0.0519
G28C C66U | 0
G28C C66A | 0.122
G29U U65A | 0.175
G28A U72C | 0.101
G28A U72A | 0.119
G29C C44G | 0
G28U G52U | 0.211
G28U G52A | 0.0733
G29A G81C | 0.0314
G29A G81A | 0.138
C30G A43C | 0.0489
C30G C61A | 0.0252
C30G C61G | 0.157
G29C C75G | 0.131
G29C C75U | 0.0287
G29U C63U | 0
G28U G35A | 0.0213
G28U G35C | 0.13

Variant | self-cleavage
G28C C62A | 0.0346
G28C C62G | 0.0536
G29C G52A | 0.0615
C30A G80A | 0.105
C30G C62G | 0
G29U C86U | 0.0959
G28A G82C | 0.0959
G28C G74A | 0.108
G29A A71G | 0.032
C30A C86U | 0.68
G29C G67U | 0.0773
G29C G67A | 0.0739
G28C A71C | 0.0475
C30A C66G | 0.675
C30A G50C | 0.577
G29U U60G | 0.175
G28C C48G | 0.138
C30G C86G | 0.0536
G29A U37G | 0.0723
G28U A51U | 0.166
C30G G82A | 0.0941
G28A G76C | 0.156
G29C G82U | 0.0959
C30A G55U | 0.458

Variant | self-cleavage
G29C U47G | 0
G29C U47A | 0.214
G29C U47C | 0.0554
G29U G54C | 0.0282
G29U G54A | 0.189
G29A G74C | 0.0831
G29C G39U | 0.0992
G28C U37C | 0.101
G28C A45U | 0.142
G28C C84A | 0.135
G28C C84G | 0.0332
G29U A45U | 0
C30A C36A | 0.0361
G29U G68U | 0.135
G29U G68A | 0.0886
G29U U47G | 0
C30A G53A | 0.389
C30A C48A | 0.635
G28U G39U | 0.119
C30G G38U | 0.114
G29U A78G | 0.0378
G29U A78U | 0.0287
G28C G52A | 0.119
G29U A87G | 0.0585

Variant | self-cleavage
G29U A87C | 0.0349
C30A C75G | 0
C30A C75A | 0.166
G29A U46A | 0.156
G29A C63A | 0.147
G29C A77U | 0.0369
C30G A45U | 0.107
C30G C48A | 0.0369
G29U C49A | 0.111
G29U C49U | 0.0583
C30A U46C | 0.237
G29A C66A | 0.191
G29C U69C | 0
G29C U69G | 0.0504
G29A C61G | 0.107
G28U C41A | 0.138
G28U C41G | 0.116
C30A A51G | 0.361
C30G C41U | 0.0702
G29C G81C | 0.18
G29C C48A | 0
G28C A51U | 0.156
C30A A56C | 0.875
G29C G76A | 0.0545

Variant | self-cleavage
G29A A78U | 0.143
G29U G74U | 0.0963
G29U G74A | 0.0978
G29C G80U | 0.0953
G29C G80A | 0.0692
G29C G50C | 0
G29C G50A | 0.0277
G29U A43G | 0.131
C30G A83U | 0.16
C30G A83G | 0
G28C G76U | 0.0378
C30A A87U | 0.537
C30A A87G | 0.614
G28U A78U | 0.0723
G28C A77G | 0.119
C30G C63A | 0.229
G28C C32U | 0.19
C30G A42C | 0.151
G28C C85U | 0
G28C C85G | 0.111
G29U C85G | 0
G29U C85U | 0.086
G28U U60G | 0.123
G28C U72A | 0.151

Variant | self-cleavage
G28U G50A | 0.0791
G28C G38A | 0.0415
C30A A77C | 0.0852
G28C G50U | 0.0519
G28C U46A | 0.107
C30A G40A | 0.462
C30A A42G | 0
C30A C49A | 0.405
G28U A45U | 0.193
G28U C75G | 0.0302
G28U C75U | 0.136
G29A C62U | 0.159
C30A C84G | 0
G29C A43C | 0.0489
G28U U69G | 0.208
G28A G74U | 0.0432
G28A G74C | 0.0845
G29A U69C | 0.131
G29U G39C | 0.0302
G29C C58G | 0.156
G29C C58U | 0.104
C30A G39U | 0.185
C30A G35C | 0.0678
C30A G35U | 0.166

Variant | self-cleavage
G29A A42U | 0.222
G29A A42G | 0.0415
C30G A71G | 0.0339
G28A G80A | 0.188
G28A G80C | 0.0396
G29A G52C | 0.197
G29A G52U | 0.153
G28C G34A | 0.146
G29C A56U | 0.0755
C30A A71U | 0.386
G28C C58G | 0.0475
G28C C58A | 0.166
G29C G54C | 0.0692
G29C G31C | 0
C30G C33U | 0
G29C G74C | 0.032
G28C C86U | 0
G29A G54U | 0.119
G28C A78U | 0.0811
C30G A70U | 0.0468
G29A G59U | 0.149
G28C A56C | 0
G29U G81C | 0.086
G28A U46G | 0.0665

Variant | self-cleavage
G29A A83C | 0.148
G28U A42G | 0.0426
G28C C64G | 0.0791
G29C C66U | 0.0573
G29A C58A | 0.318
C30G G55A | 0.0852
C30G G55U | 0.0225
G29A C57G | 0.267
G28C C30U | 0.0791
G28A G67A | 0.0936
G28U G68U | 0.0386
G28U G68A | 0.182
C30G G50C | 0.157
G29U G52U | 0.0875
G29A G73U | 0.112
C30G A87C | 0.122
C30G G80C | 0.0462
G29A A77U | 0.187
G29U A42U | 0.102
G29U A42G | 0.148
G28A G59A | 0.0573
G28U C32U | 0.041
G29C C85U | 0.108
C30A C41U | 0.328

Variant | self-cleavage
G29C G59A | 0.0332
G29C G59U | 0.163
G28U G31A | 0.0554
G28U C57G | 0.0773
C30A U72C | 0.142
C30A U72A | 0.123
G29C A45U | 0.0519
C30A C62G | 0.321
G29A G34C | 0.148
G29A G34A | 0.131
G29C A71G | 0
G29C A71U | 0.122
C30A U60A | 0.692
C30A U47C | 0.314
G28U G80A | 0.0681
G28A U37G | 0
G29C U37C | 0.0898
G29C U37G | 0.128
G29C U37A | 0.201
C30G C66G | 0.0326
G29U C57U | 0.0911
G28C G81A | 0.104
G28C G82C | 0.0475
G29C U79C | 0.138

Variant | self-cleavage
C30A C61G | 0.583
C30A C61U | 0.601
G28C G29C | 0.0504
G29C G38U | 0.0627
G29A U47G | 0.0978
G29C A78C | 0.0519
G29A U79G | 0.154
G29C G35C | 0.0405
C30A G38U | 0.107
G29A | 0.186
G29U | 0.0885
G29C | 0.1
G29A G53A | 0.217
G29A G53C | 0.134
G28U A71G | 0.0554
G28C U69G | 0.156
G28C U69C | 0.101
G28C U69A | 0.123
G28C G67C | 0.0923
G28C G67U | 0
G28C G67A | 0.0707
G28U C58U | 0.185
G28U C58A | 0.208
G29U A71U | 0.0831

Variant | self-cleavage
C30A A78G | 0.309
G29U C33U | 0.0563
G29U G76A | 0.107
G29C U72C | 0
C30G G74C | 0.108
C30G G74U | 0.128
G29A C64A | 0.22
G29A C64G | 0.202
G28A G68U | 0.0733
G28C G31C | 0
G28C G31A | 0.0739
G29U C41U | 0.0432
G29U C41G | 0.0302
G28U C61A | 0.201
G29A C49U | 0.237
G29C C33G | 0.185
G29C C33U | 0.0941
G29U G82A | 0.0282
G28A U79A | 0
C30G G53C | 0.237
C30G G53U | 0.103
G28U A70G | 0.0707
G28U A70C | 0.131
G29C C62A | 0

Variant | self-cleavage
G29C C62U | 0
G28U C62G | 0.0415
G28U G73U | 0.169
C30A C44U | 0.132
G28C C33G | 0.0519
C30G C84U | 0.0268
C30G C84G | 0.0755
G28U C86A | 0
G28U C86U | 0.0594
C30G G76A | 0.0554
C30G G76C | 0.117
C30G G40A | 0.0923
G28U G81U | 0.202
G28U A83G | 0.0569
G29A C75G | 0.0346
G29U C61G | 0.203
G28C U65G | 0.0665
G28C U65A | 0.104
C30G C32U | 0.113
C30G C32G | 0.0627
G29U C30G | 0.0923
G29U C30A | 0.155
